Laboratory results published in US20250171532A1 (NB HEALTH LABORATORY, published 2025).
Like-named read-outs stand apart in the source and are kept apart here. Blank lines part the entries; values can stand above or below the binder they belong to.

Columns and labels:
human LPA1 [1] = target: T1, human LPA1 (human, UniProt Q92633 1-364); assay: cell-based or functional assay
mouse LPA1 [2] = target: T2, mouse LPA1 (mouse, UniProt P61793 1-364); assay: cell-based or functional assay
human LPA1 [3] = target: T1, human LPA1; assay: cell-based or functional assay; remark: listed apart in the source
mouse LPA1 [4] = target: T2, mouse LPA1; assay: cell-based or functional assay; remark: listed apart in the source
human LPA1 [5] = target: T1, human LPA1; assay: cell-based or functional assay; remark: listed apart in the source
[6] = target: T3, human LPA2 with FLAG tag (human LPA2 gene transfected cell) (human, UniProt Q9HBW0 1-348); assay: flow cytometry, transfected HEK293FT cells, histogram shift
T3 construct: also called EDG4; not shown: FLAG tag added at the 5' terminal of the gene
Method: (§1) BTEK293FT cell was transfected with 10 μg of an expression vector carrying each synthetic gene using Lipofectamine 2000, to prepare a human LPA1 gene transfected cell, a mouse LPA1 gene transfected cell, a human LPA2 gene transfected cell, a mouse LPA2 gene transfected cell, a human LPA3 gene transfected cell, and a mouse LPA3 gene transfected cell.
(§2) The next day, the cells were washed with PBS, then detached from the cell culture dishes by an enzyme-free cell dissociation buffer (Thermo Fisher Scientific, Inc.), then washed with PBS, and then collected by centrifugation. Goat serum (Thermo Fisher Scientific, Inc.) was diluted by 2 times in FACS buffer (PBS containing 1% o of FBS), into which the cells were suspended at 1×10⁷ cells/mL. This suspension was allowed to stand at 4° C. for 30 minutes to block the cells. The cells were collected by centrifugation and suspended in FACS buffer at 4×10⁶ cells/mL, and this suspension was dispensed into a V-bottom 96-well plate (Thermo Fisher Scientific, Inc.) at 25 μL (1×10⁵ cells)/well.
(§3) The cells were collected by centrifugation and washed with 120 μL of FACS buffer. This washing operation was repeated twice. To the cell sediment, 25 μL each of Goat Anti-Mouse IgG H&L (DyLight 650) (Abcam) that was a secondary antibody diluted by 500 times in FACS buffer was dispensed, then suspended, and then allowed to stand at 4° C. for 1 hour. The cells were washed twice, then suspended in 50 μL of FACS buffer, and the whole content thereof was transferred to a V-bottom 96-well plate (Greiner), to measure the binding of antibodies to the cells using a flow cytometer (Agilent Novocyte).

[7] = target: T4, human LPA3 with FLAG tag (human LPA3 gene transfected cell) (human, UniProt Q9UBY5 1-353); assay: as above
T4 construct: also called EDG7; not shown: FLAG tag added at the 5' terminal of the gene
T4 sequence: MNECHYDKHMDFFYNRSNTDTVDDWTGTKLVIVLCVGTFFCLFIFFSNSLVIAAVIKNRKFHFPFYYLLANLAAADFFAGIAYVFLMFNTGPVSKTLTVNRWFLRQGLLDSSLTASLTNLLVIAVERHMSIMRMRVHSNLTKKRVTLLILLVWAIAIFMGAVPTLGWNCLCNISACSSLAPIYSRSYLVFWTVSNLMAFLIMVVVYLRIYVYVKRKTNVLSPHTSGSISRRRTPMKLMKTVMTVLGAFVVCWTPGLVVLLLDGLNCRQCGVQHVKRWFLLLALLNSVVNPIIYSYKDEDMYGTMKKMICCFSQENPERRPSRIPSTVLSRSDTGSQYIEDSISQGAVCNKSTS
Method: as §1, §2, §3

[8] = target: T5, mouse LPA2 with FLAG tag (mouse LPA2 gene transfected cell) (mouse, UniProt Q9JL06 1-348); assay: as above
T5 construct: not shown: FLAG tag added at the 5' terminal of the gene
Method: as §1, §2, §3

[9] = target: T6, mouse LPA3 with FLAG tag (mouse LPA3 gene transfected cell) (mouse, UniProt Q9EQ31 1-354); assay: as above
T6 construct: not shown: FLAG tag added at the 5' terminal of the gene
T6 sequence: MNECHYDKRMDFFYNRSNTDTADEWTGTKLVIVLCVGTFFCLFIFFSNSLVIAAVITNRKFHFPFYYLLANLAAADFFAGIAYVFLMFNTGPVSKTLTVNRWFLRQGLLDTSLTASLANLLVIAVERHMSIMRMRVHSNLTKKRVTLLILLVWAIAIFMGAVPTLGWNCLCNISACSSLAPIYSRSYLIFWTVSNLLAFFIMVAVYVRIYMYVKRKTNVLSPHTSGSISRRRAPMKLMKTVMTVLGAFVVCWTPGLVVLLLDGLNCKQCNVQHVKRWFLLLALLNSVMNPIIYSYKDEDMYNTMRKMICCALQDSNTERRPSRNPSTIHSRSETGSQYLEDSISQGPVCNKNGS
Method: as §1, §2, §3

human LPA1 [10] = target: T1, human LPA1; assay: flow cytometry, human LPA1-stably expressing CHO cells, median fluorescence intensity
Excerpt: (§4) The human LPA1-stably expressing CHO cell and the mouse LPA1-stably expressing CHO cell were washed with PBS, then detached from the cell culture dishes by an enzyme-free cell dissociation buffer (Thermo Fisher Scientific, Inc.), then washed with PBS, and then collected by centrifugation. The human LPA1-stably expressing CHO cell and the mouse LPA1-stably expressing CHO cell were suspended at 1×10⁷ cells/mL in Fc Block (Sci-Tech Biosciences, Inc.) diluted by 500 times in FACS buffer, and then allowed to stand at 4° C. for 30 minutes to block the cells. The cells were collected by centrifugation and suspended in FACS buffer at 4×10⁶ cells/mL, and this suspension was dispensed into a V-bottom 96-well plate (Thermo Fisher Scientific, Inc.) at 25 μL (1×10⁵ cells)/well. As primary antibodies, the eleven types of LPA1 antibodies produced and purified by the method described above and a mouse isotype control antibody (Fujifilm Wako Pure Chemicals Corporation) were diluted stepwise, which was added to each well at 25 μL/well, and allowed to stand at 4° C. for 1 hour. The cells were collected by centrifugation and washed with 120 μL of FACS buffer. This washing operation was repeated twice. To the cell sediment, 25 μL each of Goat Anti-Mouse IgG H&L (DyLight 650) (Abcam) that was a secondary antibody diluted by 500 times in FACS buffer was dispensed, then suspended, and then allowed to stand at 4° C. for 1 hour. The cells were washed twice, then suspended in 50 μL of FACS buffer, and the binding of antibodies to the cells was measured using a flow cytometer (Agilent Novocyte).
(§5) A graph was created, in which a concentration of the antibody was plotted on the […] axis, and a median fluorescence intensity of the flow cytometer histogram was plotted on the horizontal axis. All of the eleven antibodies were confirmed to dose-dependently bind to the human LPA1-stably expressing CHO cell and the mouse LPA1-stably expressing CHO cell. The results of the binding of each antibody to the human LPA1-stably expressing CHO cell are presented in FIG. 2A to FIG. 2K, and the results of the binding of each antibody to the mouse LPA1-stably expressing CHO cell are presented in FIG. 3A to FIG. 3K.

mouse LPA1 [11] = target: T2, mouse LPA1; assay: flow cytometry, mouse LPA1-stably expressing CHO cells, median fluorescence intensity
Excerpt: as §4, §5

human LPA1 [12] = target: T1, human LPA1; assay: flow cytometry, human LPA1-stably expressing CHO cells, median fluorescence intensity; remark: listed apart in the source
Excerpt: as §4
Subsequently, the binding activity of the human LPA1-stably expressing CHO cell to human LPA1 was measured according to the method in Example 6. A graph was created, in which a concentration of the antibody was plotted on the […] axis, and a median fluorescence intensity of the flow cytometer histogram was plotted on the horizontal axis. […] The intracellular cAMP signaling inhibitory activity was also measured according to the method in Example 7.

T2 sequence (P61793 whole entry): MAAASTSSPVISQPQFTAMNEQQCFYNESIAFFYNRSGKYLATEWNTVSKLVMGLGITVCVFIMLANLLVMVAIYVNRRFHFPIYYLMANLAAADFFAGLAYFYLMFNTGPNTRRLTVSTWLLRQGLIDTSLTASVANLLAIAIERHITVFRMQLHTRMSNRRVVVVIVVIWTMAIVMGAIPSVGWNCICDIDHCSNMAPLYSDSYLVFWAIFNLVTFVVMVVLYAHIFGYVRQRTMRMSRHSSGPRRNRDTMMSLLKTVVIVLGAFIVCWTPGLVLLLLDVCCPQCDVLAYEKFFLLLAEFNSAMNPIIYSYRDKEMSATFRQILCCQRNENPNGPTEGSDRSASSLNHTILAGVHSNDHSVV
T1 sequence (Q92633 whole entry): as the sequence (P61793 whole entry) above, with A4I, S8I, Q22P, Y40H, V61I, D193E, H194N, V269I, N331S, N335T counted along it
T5 sequence (Q9JL06 whole entry): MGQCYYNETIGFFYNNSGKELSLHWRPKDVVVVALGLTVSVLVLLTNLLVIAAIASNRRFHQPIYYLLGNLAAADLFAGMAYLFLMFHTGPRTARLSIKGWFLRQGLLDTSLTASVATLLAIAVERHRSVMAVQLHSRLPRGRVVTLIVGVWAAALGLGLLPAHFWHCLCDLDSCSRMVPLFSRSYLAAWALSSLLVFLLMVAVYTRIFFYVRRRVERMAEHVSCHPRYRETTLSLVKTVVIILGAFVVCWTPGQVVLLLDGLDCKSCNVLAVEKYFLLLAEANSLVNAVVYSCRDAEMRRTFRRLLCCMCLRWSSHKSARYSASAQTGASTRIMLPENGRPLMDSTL
T3 sequence (Q9HBW0 other isoform, or with tags, fused parts or gaps): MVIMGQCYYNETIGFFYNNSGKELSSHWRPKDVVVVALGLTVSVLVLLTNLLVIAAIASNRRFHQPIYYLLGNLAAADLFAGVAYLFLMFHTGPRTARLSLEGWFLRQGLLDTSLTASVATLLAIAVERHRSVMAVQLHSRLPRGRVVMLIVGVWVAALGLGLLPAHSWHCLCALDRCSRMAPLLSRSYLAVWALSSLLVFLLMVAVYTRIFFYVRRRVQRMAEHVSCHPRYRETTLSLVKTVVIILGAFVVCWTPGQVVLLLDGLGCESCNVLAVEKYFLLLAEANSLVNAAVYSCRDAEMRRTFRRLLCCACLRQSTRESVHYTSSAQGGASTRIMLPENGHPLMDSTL

Intracellular cAMP signaling inhibition (Inhibition rate %/100 nM) (human LPA1 [1]): 95%
Intracellular cAMP signaling inhibition (Inhibition rate %/100 nM) (mouse LPA1 [2]): 50%
Intracellular cAMP signaling inhibition IC50 (human LPA1 [3]): 5.3 nM
Intracellular cAMP signaling inhibition IC50 (mouse LPA1 [4]): 23.8 nM
Intracellular cAMP signaling inhibition IC50 (human LPA1 [5]): 4.5 nM
EC50 (human LPA1 [10]): 1.5 nM
EC50 (mouse LPA1 [11]): 1.1 nM
EC50 (human LPA1 [12]): 1.4 nM
B1: 210309-4-A (antibody, mouse IgG1, V domains shown)
VH: QVQLQQSGAELARPGASVKLSCKASGYTFTSYGISWVKQRTGQGLEWIGEIYPRSGNTYYNEKFKGKATLTADKSSSTAYMELRSLTSEDSAVYFCARESISRRLGWNFDVWGTGTTVTVSS
VL: DIHMTQSPASLSASVGETVTITCRASENIYSFLAWYQQKQGKSPHLVVYNAKTLTEGVPSRFSGSGSGTHFSLKINSLQPEDFGIYYCQHHYGPPLTFGAGTKLELK
notes: Mouse monoclonal from human LPA1 immunization
binding result [6]: no binding (tested: 25 g/mL (so in the source))
binding result [7]: no binding (tested: 25 g/mL (so in the source))
binding result [8]: no binding (tested: 25 g/mL (so in the source))
binding result [9]: no binding (tested: 25 g/mL (so in the source))

Intracellular cAMP signaling inhibition IC50 (human LPA1 [5]): 1 nM
EC50 (human LPA1 [12]): 4.4 nM
B2: 309-4-A-Chimera (antibody, human IgG1, kappa, L234A L235A, V domains shown)
VH: B1 VH
VL: DIHMTQSPASLSASVGETVTITCRASENIYSFLAWYQQKQGKSPHLVVYNAKTLTEGVPSRFSGSGSGTHFSLKINSLQPEDFGIYYCQHHYGPPLTFGAGTKLELKR
notes: also called chimeric anti-LPA1 antibody

Intracellular cAMP signaling inhibition IC50 (human LPA1 [5]): 5.7 nM
EC50 (human LPA1 [12]): 4.2 nM
B3: h309-4-A-SG1 (antibody, human IgG1, kappa, L234A L235A, V domains shown)
VH: QVQLVQSGAEVKKPGASVKVSCKASGYTFTSYGISWVRQAPGQGLEWIGEIYPRSGNTYYNEKFKGRATLTADKSTSTAYMELRSLRSDDTAVYFCARESISRRLGWNFDVWGTGTTVTVSS
VL: DIQMTQSPSSLSASVGDRVTITCRASENIYSFLAWYQQKPGKAPKLVVYNAKTLTEGVPSRFSGSGSGTDFTLTISSLQPEDFATYYCQHHYGPPLTFGAGTKLELKR
notes: also called humanized anti-LPA1 antibody
